“And” between values parts separate entries of the source, which are not always exact repeats. Identical values can stand only once.
Target: the molecule itself
Assay: SEC; Superdex 200 HR 16/60, 10 mM Hepes, 150 mM NaCl, pH 7.5, 1 ml/min; dimer and tetramer separated; they do not interconvert in the pH interval 4 to 9

B1: soluble human dopamine β-hydroxylase, residues 40 to 617, FLAG-tagged (enzyme, UniProt P09172 40-617, looked up)
chain: SAPRESPLPYHIPLDPEGSLELSWNVSYTQEAIHFQLLVRRLKAGVLFGMSDRGELENADLVVLWTDGDTAYFADAWSDQKGQIHLDPQQDYQLLQVQRTPEGLTLLFKRPFGTCDPKDYLIEDGTVHLVYGILEEPFRSLEAINGSGLQMGLQRVQLLKPNIPEPELPSDACTMEVQAPNIQIPSQETTYWCYIKELPKGFSRHHIIKYEPIVTKGNEALVHHMEVFQCAPEMDSVPHFSGPCDSKMKPDRLNYCRHVLAAWALGAKAFYYPEEAGLAFGGPGSSRYLRLEVHYHNPLVIEGRNDSSGIRLYYTAKLRRFNAGIMELGLVYTPVMAIPPRETAFILTGYCTDKCTQLALPPSGIHIFASQLHTHLTGRKVVTVLVRDGREWEIVNQDNHYSPHFQEIRMLKKVVSVHPGDVLITSCTYNTEDRELATVGGFGILEEMCVNYVHYYPQTQLELCKSAVDAGFLQKYFHLINRFNNEDVCTCPQASVSQQFTSVPWNSFNRDVLKALYSFAPISMHCNKSSAVRFQGEWNLQPLPKVISTLEEPTPQCPTSQGRSPAGPTVVSIGGGKG
modifications: glycosylation at Asn64, Asn184, Asn344 and Asn566; intermolecular disulfides C528-C530 and C530-C528 between the two chains of the dimer
notes: human dopamine β-hydroxylase, residues 40 to 617; the first 39 residues (signal anchor for type II membrane proteins) left out to obtain soluble DBH; the dimeric fraction was crystallised; A SeMet-labelled form was used for phasing only; also called DBH; dopamine β-monooxygenase; not shown: FLAG, C-terminal, kept
stoichiometry N: 2 and 4

From PMC4846438, “The crystal structure of human dopamine β-hydroxylase at 2.9 Å resolution” (Science Advances, 2016)
